In experiment [1] the target is MSLN. In words: BLI (Blitz). The following applies: 800nM trace, read at end of association (about 120 s); parent: est. 0.63; read off a plot.
The target in experiment [2] is murine CD64 (FcγRI) (UniProt P26151). Kind of experiment: ELISA. The following applies: highest concentration point (about 1e4 nM); parent: est. 1.2; read off a plot. Background: ELISA stands for enzyme-linked immunosorbent assay.
Experiment [3] addresses human CD64 (FcγRI) (UniProt P12314). In words: ELISA. The following applies: highest concentration point (about 500 nM); parent: est. 3.4; read off a plot.
UniProt P12314, sequence (P12314 16-374): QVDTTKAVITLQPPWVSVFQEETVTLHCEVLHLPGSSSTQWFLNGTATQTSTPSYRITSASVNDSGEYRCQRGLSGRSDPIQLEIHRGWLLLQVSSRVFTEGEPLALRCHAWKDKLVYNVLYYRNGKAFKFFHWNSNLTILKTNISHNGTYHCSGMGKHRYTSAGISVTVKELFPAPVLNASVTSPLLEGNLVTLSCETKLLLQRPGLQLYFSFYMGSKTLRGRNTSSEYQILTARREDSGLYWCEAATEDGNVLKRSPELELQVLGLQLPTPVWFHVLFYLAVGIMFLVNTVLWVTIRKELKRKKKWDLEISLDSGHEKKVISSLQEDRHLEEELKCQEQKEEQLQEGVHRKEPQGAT

UniProt P26151, sequence (P26151 25-404): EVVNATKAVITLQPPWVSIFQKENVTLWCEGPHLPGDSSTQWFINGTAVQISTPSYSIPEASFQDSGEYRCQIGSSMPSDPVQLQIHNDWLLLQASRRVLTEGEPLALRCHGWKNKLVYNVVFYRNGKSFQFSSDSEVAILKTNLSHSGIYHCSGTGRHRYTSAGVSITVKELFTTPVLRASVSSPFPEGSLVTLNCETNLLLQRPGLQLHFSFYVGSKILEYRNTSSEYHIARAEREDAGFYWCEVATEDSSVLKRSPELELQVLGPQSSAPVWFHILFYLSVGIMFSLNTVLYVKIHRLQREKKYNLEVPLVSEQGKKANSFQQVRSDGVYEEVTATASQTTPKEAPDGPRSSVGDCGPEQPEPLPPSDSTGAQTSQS

Regarding “2A10-VH-FcWT (from UniProt P01857) G236R; L328R”, the figures for the response in experiment [1], in experiment [2] and in experiment [3] were 0.78 nm, 0.3 OD450 and 0.27 OD450, respectively.
The like results for “2A10-VH-FcWT (from UniProt P01857) L234A; L235A; P329G” were, in that order, 0.78 nm, 0.25 OD450 and 0.22 OD450.

(Values after article PMC12828721.)
